Tests used:
Conditions in all cases: SpdR and RtrB: 20 mM HEPES pH 7.8, 4 mM MgCl2, 37 mM KCl, 1 mM CaCl2, 0.75 mM DTT, 8% glycerol, 75 ug/ml BSA; RtrA: 10 mM Tris pH 7.6, 2 mM MgCl2, 50 mM KCl …
[1] = target: T1, RtrA (Caulobacter crescentus (NA1000?)) (UniProt A0A0H3CB76); test: competition
T1 sequence: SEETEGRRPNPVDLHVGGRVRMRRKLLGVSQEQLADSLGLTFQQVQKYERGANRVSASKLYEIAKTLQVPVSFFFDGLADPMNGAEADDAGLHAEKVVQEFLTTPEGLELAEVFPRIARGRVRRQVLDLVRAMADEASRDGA

[2] = target: T2, RtrB (Caulobacter crescentus (NA1000?)) (UniProt A0A0H3C9Q5); test: competition
T2 sequence: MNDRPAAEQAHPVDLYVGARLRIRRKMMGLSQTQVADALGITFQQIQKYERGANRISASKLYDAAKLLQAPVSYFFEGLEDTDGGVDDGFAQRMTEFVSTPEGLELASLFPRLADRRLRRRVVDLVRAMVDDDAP

[3] = target: T3, SpdR(D64E) D64E (Caulobacter crescentus (NA1000?)) (UniProt A0A0H3C6B9); test: EMSA
T3 sequence: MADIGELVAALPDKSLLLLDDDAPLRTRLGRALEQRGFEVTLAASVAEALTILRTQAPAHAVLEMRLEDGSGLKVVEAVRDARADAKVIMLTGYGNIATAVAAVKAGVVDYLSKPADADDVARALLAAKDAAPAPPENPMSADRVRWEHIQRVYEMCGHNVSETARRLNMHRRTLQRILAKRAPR

[4] = target: T1, RtrA (Caulobacter crescentus (NA1000?)); test: EMSA
[5] = target: T2, RtrB (Caulobacter crescentus (NA1000?)); test: EMSA

| Sequence | binding [1] | binding [2] | binding [3] | binding [4] | binding [5] |
| --- | --- | --- | --- | --- | --- |
| TGGTGGTCCTGATCCTCCTGCAGCGACCGATCGTGCATCGCGCGCTGGTTCCCGCGCTCCTGCTCGCCTGGCTGGTCCTGAACGGGACGGACGTGATGCACTACAGCTAGGGCTCGGCGGCTCTGGTAAACAACCCAACCCCGATCAACGAAGGTTTAGAAAGCTTTAAGAGAAACGTTGCGAATTGTAAAATTCTTCTCTGGGTTGAAACCCATTTCGGGTGTATCGATGAGGTGTCGGGCCATTTATTGAGCGCGGACAGGATGTTGTCAGTG (double strand) [unlabeled specific hfiA competitor] | binds | binds |  |  |  |
| TGGTGGTCCTGATCCTCCTGCAGCGACCGATCGTGCATCGCGCGCTGGTTCCCGCGCTCCTGCTCGCCTGGCTGGTCCTGAACGGGACGGACGTGATGCACTACAGCTAGGGCTCGGCGGCTCTGGTAAACAACCCAACCCCGATCAACGAAGGTTTAGAAAGCTTTAAGAGAAACGTTGCGAATTGTAAAATTCTTCTCTGGGTTGAAACCCATTTCGGGTGTATCGATGAGGTGTCGGGCCATTTATTGAGCGCGGACAGGATGTTGTCAGTG (double strand) [hfiA promoter probe] |  |  | no binding | binds | binds |
| CTAGGGACTGCCATCTTCGGCTGTATTTCAGATTTGTTTCCGCATTGTGGCTGCGACGAAATGTCGCGGTACCCGCTTGTGCGCTGTTTTGACGCGATTTCGTCATTGACGGCTCTCCTCACGCGAGAACACTGTTCTTGTAGTGCTTGCTCCGATGGGCTGATTGGGCAAGCCAGAGGGGTGGGATGTCTGGTTACGA (double strand) [cspD promoter probe] |  |  | binds |  |  |
